First the molecules themselves.
B1: Nb54 (VHH)
VHH: QVQLQESGGGSVQSGGSLRLSCAASTYTYNNYCMGWFRQAPGKEREGVASIERFGHTIFADSVKGRFTISRDNTKNTLYLQMNSLKPEDTAMYYCATERPSAYCSDSFTFNYWGQGTQVTVSS
B2: Nb5 (VHH)
VHH: QVQLQESGGGSVQSGGSLRLSCAASTYTYSSGCMGWFRQAPGKEREGVATIDSDGSTTYADSVKGRFTISQDNAKNTLQLQMNSLKPEDTAMYYCAADDFWICSIIGRPGVADFRYWGQGTQVTVSS
B3: Nb20 (VHH)
VHH: QVQLQESGGGSVQSGGSLRLSCRAVDGSGACMGWFRQAPGKEREGVAVIARDGSTNYAHSVRGRFTISQDNAKNTLYLQMNGLKPDDTAMYYCAAGPRFRSCSTSPSFYTSWGQGTQVTVSS
B4: Nb114 (VHH)
VHH: QVQLQESGGGSVQSGGSLRLSCAASGYTYQTYSMGWFRQAPGKEREGVAAIDDDGSTMYADSVKGRFTISQDSAKNTLYLQMNSLKPEDTAVYYCAASGFRGLLEFMRNIWVDYWGQGTQVTVSS
B5: Nb60 (VHH)
VHH: QVQLQESGGGSVQPGGSLRLSCAASGFAVSSVAMSWVRQAPGKGLEWVSSINRYGFRVYADSVTGRFTISRDNAKNTLYLQLNSLKTEDTAMYYCSKDDDANWLNGRRGQGTQVTVSS
B6: Nb100 (VHH)
VHH: QVQLQESGGGSVQSGGSLRLSCAASGYRRYCMAWFRQAPGKEREGVASIRSDGSTRYADSVKGRFSISQDNAENTLYLQMNSLKPEDTAMYYCAADSSAGCYSVHNSLLARSTYNYWGQGTQVTVSS
B7: Nb45 (VHH)
VHH: QVQLQESGGGSVQSGGSLRLSCARSGYARRIYSMAWFRQAPGKEREGVAILNDDGNPTYAGSVKGRFTISRDNAKNTLYLQMNSLKPEDTAMYYCAADLTAQSYTRDRLLTSAYNVWGQGTQVTVSS

The target in the test is BVDV NS5B-His recombinant protein (Bovine viral diarrhea virus 1, strain …, UniProt P19711). As to the kind of experiment: ELISA. For orientation: In an ELISA, binding on a coated surface is turned into a signal by an enzyme label.
Sequence of BVDV NS5B-His recombinant protein (P19711 whole entry, looked up): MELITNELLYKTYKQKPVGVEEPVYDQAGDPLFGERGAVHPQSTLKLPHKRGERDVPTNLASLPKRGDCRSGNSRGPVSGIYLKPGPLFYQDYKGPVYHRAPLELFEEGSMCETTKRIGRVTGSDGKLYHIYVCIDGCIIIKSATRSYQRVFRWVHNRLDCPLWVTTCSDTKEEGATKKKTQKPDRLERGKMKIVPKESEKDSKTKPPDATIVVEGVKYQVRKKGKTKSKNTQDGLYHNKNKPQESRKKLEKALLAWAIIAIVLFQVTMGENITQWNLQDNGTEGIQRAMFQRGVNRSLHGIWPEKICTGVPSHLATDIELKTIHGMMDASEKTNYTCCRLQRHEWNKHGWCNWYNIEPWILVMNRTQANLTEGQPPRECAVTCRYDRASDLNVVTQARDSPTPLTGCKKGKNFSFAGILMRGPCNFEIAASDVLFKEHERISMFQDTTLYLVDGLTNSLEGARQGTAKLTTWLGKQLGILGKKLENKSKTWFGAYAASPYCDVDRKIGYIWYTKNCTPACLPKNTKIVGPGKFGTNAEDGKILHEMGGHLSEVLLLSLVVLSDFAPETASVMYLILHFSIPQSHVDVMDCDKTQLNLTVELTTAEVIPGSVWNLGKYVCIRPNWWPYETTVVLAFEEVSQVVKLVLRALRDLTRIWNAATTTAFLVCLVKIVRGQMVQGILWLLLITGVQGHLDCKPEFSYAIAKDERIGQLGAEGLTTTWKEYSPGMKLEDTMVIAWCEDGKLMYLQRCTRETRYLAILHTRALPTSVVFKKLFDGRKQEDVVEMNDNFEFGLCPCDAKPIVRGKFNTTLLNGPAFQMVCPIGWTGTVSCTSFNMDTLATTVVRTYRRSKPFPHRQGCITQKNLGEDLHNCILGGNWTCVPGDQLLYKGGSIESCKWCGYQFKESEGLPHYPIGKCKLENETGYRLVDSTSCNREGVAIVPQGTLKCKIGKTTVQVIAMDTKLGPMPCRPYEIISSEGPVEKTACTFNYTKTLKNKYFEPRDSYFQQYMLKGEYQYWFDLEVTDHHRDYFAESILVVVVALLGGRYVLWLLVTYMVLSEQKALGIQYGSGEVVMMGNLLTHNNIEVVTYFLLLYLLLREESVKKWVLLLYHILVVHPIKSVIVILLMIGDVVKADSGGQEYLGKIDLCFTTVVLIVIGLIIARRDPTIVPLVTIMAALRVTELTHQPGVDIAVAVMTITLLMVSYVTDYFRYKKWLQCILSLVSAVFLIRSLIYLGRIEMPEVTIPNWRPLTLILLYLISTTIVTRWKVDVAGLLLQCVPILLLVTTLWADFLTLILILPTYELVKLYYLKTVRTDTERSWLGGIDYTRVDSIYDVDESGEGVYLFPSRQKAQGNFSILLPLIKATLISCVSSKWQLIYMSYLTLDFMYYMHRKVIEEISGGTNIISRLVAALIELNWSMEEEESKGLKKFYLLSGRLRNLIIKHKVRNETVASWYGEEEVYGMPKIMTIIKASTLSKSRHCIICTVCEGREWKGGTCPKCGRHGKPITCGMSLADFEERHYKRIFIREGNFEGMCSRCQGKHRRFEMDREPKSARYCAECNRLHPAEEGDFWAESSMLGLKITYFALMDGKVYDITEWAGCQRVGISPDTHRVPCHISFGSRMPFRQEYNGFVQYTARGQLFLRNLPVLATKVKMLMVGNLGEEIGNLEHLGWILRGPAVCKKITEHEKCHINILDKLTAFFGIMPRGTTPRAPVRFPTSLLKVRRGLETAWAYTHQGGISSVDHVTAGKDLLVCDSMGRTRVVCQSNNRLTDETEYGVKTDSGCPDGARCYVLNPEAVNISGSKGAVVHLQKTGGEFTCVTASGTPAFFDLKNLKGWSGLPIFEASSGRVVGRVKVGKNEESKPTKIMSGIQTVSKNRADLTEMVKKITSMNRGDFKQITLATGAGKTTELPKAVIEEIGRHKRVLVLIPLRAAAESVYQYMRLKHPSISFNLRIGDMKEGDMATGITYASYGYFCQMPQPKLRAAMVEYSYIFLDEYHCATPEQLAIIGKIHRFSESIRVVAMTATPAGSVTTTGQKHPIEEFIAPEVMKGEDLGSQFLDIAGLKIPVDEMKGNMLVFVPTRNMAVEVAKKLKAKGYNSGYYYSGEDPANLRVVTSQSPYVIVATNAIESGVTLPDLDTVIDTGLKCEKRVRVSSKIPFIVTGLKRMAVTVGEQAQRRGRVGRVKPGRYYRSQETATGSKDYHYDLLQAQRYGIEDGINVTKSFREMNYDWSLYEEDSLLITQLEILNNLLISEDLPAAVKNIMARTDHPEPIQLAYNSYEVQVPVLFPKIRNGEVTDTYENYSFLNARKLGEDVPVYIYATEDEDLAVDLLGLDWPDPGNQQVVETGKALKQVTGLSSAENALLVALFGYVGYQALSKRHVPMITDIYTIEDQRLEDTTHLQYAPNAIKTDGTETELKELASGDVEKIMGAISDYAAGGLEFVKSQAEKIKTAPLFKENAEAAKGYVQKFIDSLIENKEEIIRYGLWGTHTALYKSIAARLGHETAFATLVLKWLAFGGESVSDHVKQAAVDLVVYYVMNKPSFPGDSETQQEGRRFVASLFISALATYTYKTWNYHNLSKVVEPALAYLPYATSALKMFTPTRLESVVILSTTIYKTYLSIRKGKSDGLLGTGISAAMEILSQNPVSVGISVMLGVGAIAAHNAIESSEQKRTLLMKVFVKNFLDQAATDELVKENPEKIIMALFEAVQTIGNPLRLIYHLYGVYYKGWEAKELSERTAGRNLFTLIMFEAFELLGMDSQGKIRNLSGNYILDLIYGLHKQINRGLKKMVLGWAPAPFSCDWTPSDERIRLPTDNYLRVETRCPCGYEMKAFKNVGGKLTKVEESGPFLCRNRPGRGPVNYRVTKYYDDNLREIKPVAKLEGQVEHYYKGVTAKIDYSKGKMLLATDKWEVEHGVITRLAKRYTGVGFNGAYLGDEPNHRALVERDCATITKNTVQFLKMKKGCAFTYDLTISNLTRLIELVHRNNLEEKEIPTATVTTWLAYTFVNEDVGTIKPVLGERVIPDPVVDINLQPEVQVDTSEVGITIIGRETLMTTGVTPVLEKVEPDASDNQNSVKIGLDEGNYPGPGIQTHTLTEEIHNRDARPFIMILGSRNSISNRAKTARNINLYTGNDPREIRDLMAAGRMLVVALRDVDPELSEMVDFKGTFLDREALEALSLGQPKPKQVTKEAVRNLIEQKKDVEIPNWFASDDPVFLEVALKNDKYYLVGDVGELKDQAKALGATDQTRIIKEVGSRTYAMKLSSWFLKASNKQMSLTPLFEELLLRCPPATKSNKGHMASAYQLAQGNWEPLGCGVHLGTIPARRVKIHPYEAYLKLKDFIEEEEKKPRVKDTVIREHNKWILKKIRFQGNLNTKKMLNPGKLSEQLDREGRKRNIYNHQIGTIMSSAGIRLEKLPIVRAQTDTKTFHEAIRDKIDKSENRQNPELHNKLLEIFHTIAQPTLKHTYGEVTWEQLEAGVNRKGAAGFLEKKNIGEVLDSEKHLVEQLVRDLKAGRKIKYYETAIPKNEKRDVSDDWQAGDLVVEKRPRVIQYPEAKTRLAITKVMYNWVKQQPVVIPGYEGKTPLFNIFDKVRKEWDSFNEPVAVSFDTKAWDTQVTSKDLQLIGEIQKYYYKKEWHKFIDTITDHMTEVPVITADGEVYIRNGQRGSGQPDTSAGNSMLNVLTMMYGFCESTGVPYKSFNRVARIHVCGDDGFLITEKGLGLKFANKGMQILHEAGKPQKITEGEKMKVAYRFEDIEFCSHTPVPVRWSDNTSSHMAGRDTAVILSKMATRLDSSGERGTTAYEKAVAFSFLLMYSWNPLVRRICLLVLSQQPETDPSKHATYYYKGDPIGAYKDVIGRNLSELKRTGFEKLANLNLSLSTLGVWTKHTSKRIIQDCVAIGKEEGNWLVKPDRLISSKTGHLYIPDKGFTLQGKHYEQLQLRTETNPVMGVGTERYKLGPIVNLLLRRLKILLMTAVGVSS
As to B1, the binding result is recorded as “binds”.

Take B2: the binding result was “binds”.

For the molecule B3, the binding result is given as “binds”.

In the case of B4, the binding result is “binds”.

As to B5, the binding result is “binds”.

On to B6, for which the binding result is “binds”.

For B7, the binding result is listed as “binds”.
